Results on 32 sequences are retold here after the supplement of paper PMC10201428.

± gives the standard deviation of the averaged measurements.

This series relates to VchCAST RNA-guided transposition machinery (E. coli BL21(DE3) host, lacZ target). Briefly: relative integration efficiency (T-LR orientation) vs wild-type transposon end (log2 (normalized fold change)); transposon end mutated: right end (5 bp flank + 75 bp right end); higher = more efficient transposition. The essentials: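 Relative integration efficiency is a fold change of output over input barcode abundance, normalised to reference barcodes and log-transformed. Input plasmids and genomic integration junctions were PCR-amplified and Illumina-sequenced from E. coli BL21(DE3) co-transformed with a T7-driven effector plasmid and pUC57 donor pools of 1549 left-end or 1849 right-end transposon variants. Plating was done with 0.1 mM IPTG at 37°C for 18 h, with two biological output replicates and four reference barcodes.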
As to “ACATTTGTTGATACAACCATAAAATGATAATTAACCCCATAAATTGATAATTATCACACCCATAAATTGATATTGCCTCTGATCATAGTCAGACCAACATTGCTACGACCCGTATTCGCACCGACAC”, the “relative integration efficiency (log2)” value was -0.881 ± 0.17.
Turning to “ACATTTGTTGATACAACCATAAAATGATAATTACTCTGATCATAGTCAGACCAACATTGCTACCACCCATAAATTGATAATTATCAGTGGGTATTTAACTATAACGGACCCGTATTCGCACCGACAC”, the “relative integration efficiency (log2)” value was determined as 1.601 ± 0.014.
The figure for “ACATTTGTTGATAGTTGGTATTTTACTATTAATCACCCATAAATTGATAATTATCAGTGGGTATTTAACTATAACGCTCTGATCATAGTCAGACCAACATTGCTACGACCCGTATTCGCACCGACAC” is -4.49 ± 1.4.
The figure for “ACATTTGTTGATACAACCATAAGTTGATATTTTCAACCATAAAATGATAATTATCACAACCATAAGTTGATATTTTCTCTGATCATAGTCAGACCAACATTGCTACGACCCGTATTCGCACCGACAC” is -0.119 ± 0.45; for “ACATTTGTTGATACAACCATAAAATGATAATTACACGGATAAATTGATAATTATCACACCCATAAATTGATATTGCCTCTGATCATAGTCAGACCAACATTGCTACGACCCGTATTCGCACCGACAC” it is -0.469 ± 0.21.
The figure for “ACATTTGTTGATACACCCATAAATTGATATTGCCAACCATAAAGTGATATTTATCACAACCATAAAATGATAATTACTCTGATCATAGTCAGACCAACATTGCTACGACCCGTATTCGCACCGACAC” is -0.362 ± 0.13; for “ACATTTGTTGATAACACCATAAAATGATAATTACACCCATAAATTGATAATTATCACACCCATAAATTGATATTGCCTCTGATCATAGTCAGACCAACATTGCTACGACCCGTATTCGCACCGACAC” it is -0.747 ± 0.13.
As to “ACATTTGTTGATACAACCATAAAATGATTATTACACCCATAAATTGATAATAATGACACCGAATTTAACTATAACGCTCTGATCATAGTCAGACCAACATTGCTACGACCCGTATTCGCACCGACAC”, the “relative integration efficiency (log2)” value stood at 2.95 ± 0.061.
The figure for “ACATTTGTTGATACAACCATAAAATGATAATTACACCCATAAATTGATAATTCGACACAAACGCCCGGTCGCGGTAAGAGGATCATAGTCAGACCAACATTGCTACGACCCGTATTCGCACCGACAC” is 3.748 ± 0.033; for “ACATTTGTTGATACAACCATAAAATGATAATTACTCTGATCATAGTCAGACCAACATTCACCCATAAATTGATAATTATCAGTGGGTATTTAACTATAACGGCTACGACCCGTATTCGCACCGACAC” it is -0.137 ± 0.076.
For “ACATTAGTTGATACAACCATAAAATGATAATTACACCCATAAATGGATAATTATCACACCCAATTTAACTATAACGCTCTGATCATAGTCAGACCAACATTGCTACGACCCGTATTCGCACCGACAC” the value was -4.68 ± 1.3; for “ACATTTGTTGATACAACCATAAAATCATCATTACACCCATCAATTGATAATTATCCCACCCAATTTAACTATAACGCTCTGATCATAGTCAGACCAACATTGCTACGACCCGTATTCGCACCGACAC”, -1.17 ± 0.061.
On to “ACATTTGTTGATACAACCATAAAATCTTAATTACACCCATAAATTGATAATTATCACACCCATAAATTGATATTGCCTCTGATCATAGTCAGACCAACATTGCTACGACCCGTATTCGCACCGACAC”, for which the “relative integration efficiency (log2)” value was -1.09 ± 0.22.
For “ACATTTGTTGATACAACCATAAAATGATAATTACAACCATAAAATGATAATTATCACAACCATAAGTTGATATTTTCTCTGATCATAGTCAGACCAACATTGCTACGACCCGTATTCGCACCGACAC” the value was -0.17 ± 0.32; for “ACATTTGTTGATACACCCATAAATTGATATTGCCACCCATAAATTGATATTGCTCACAACCATAAAATGATAATTACTCTGATCATAGTCAGACCAACATTGCTACGACCCGTATTCGCACCGACAC”, -0.156 ± 0.22; for “ACATTTGTTGATACAACCATAAAATGATAATTACACCCATAAATTGATAATTATCACACCCATAAATTGATATTGCCTCTGATCATAGTCGAACTAGTTAACTAGTACGCTCAGACCGCACCGACAC”, 0.192 ± 0.2.
For “ACATTTGTTCTTACAACCATAAAATGATAATTACACCCATAAATTGATAATTATCACACCCATAAATTGATATTGCCTCTGATCATAGTCAGACCAACATTGCTACGACCCGTATTCGCACCGACAC” the value was -3.55 ± 0.75.
The figure for “ACATTTGTTGATACAACCATTAAATGATAATTCCACCCATAATTTGATAATTATCACACCCAATTTAACTATAACGCTCTGATCATAGTCAGACCAACATTGCTACGACCCGTATTCGCACCGACAC” is 2.52 ± 0.061.
In the case of “ACATTTGTTGATACAACCATAAAATGATAATTAATAATTATTTATAATCAGCAACTTAACCACACCCATAAATTGATAATTATCAACAAACGCCCGGTCGCGGTACTCTGATCATAGTCAGACCAAC”, the “relative integration efficiency (log2)” value is 1.01 ± 0.042.
The figure for “ACATTTGTTCATACAACCATAAAACGATAATTACACCCATAAATGGATAATTATCACACCCAATTTAACTATAACGCTCTGATCATAGTCAGACCAACATTGCTACGACCCGTATTCGCACCGACAC” is -0.438 ± 0.41; for “CAAAATGTTGATACAACCATAAAATGATAATTACACCCATAAATTGATAATTATCACACCCATAAATTGATATTGCCTCTGATCATAGTCAGACCAACATTGCTACGACCCGTATTCGCACCGACAC” it is -0.0192 ± 0.23; for “ACATTTGTTGATACAACCATATATTGATATCTCCAACCATAAAGTGATATTTATCAGTGGGTATTTAACTATAACGCTCTGATCATAGTCAGACCAACATTGCTACGACCCGTATTCGCACCGACAC” it is 2.59 ± 0.059.
For “ACATTTGTTGATACACCCATAAATTGATATTGCCACCCATAAATTGATAATTATCAGTGGGTATTTAACTATAACGCTCTGATCATAGTCAGACCAACATTGCTACGACCCGTATTCGCACCGACAC” the value was 2.03 ± 0.071; for “ACATTTGTTGATACAACCATAAAATGATAATTACACCCATAAATTGATCCGGATCACACCCATAAATTGATATTGCCTCTGATCATAGTCAGACCAACATTGCTACGACCCGTATTCGCACCGACAC”, -0.388 ± 0.14.
The figure for “ACATTTGTTGATACAAAACGAAAATGATAATTACACCCATAAATTGATAATTATCACACCCATAAATTGATATTGCCTCTGATCATAGTCAGACCAACATTGCTACGACCCGTATTCGCACCGACAC” is -6.65 ± 0.98; for “ACATTTGTTGATACAACCATAAAATCATAATTACCCCCATCAATTGATAATTATCACACCCAATTTAACTATAACGCTCTGATCATAGTCAGACCAACATTGCTACGACCCGTATTCGCACCGACAC” it is -2.04 ± 0.46; for “ACATTTGTGGATACAACCATAAAATGATAATTCACCCATCAATTGATAATTATCACACCCCAATTTAACTATAACGCTCTGATCATAGTCAGACCAACATTGCTACGACCCGTATTCGCACCGACAC” it is 0.328 ± 0.26.
Turning to “ACATTTGTTGATACAACCATAAAATCATCATTCACCCCTAAATTGATAATTATCACACCCACATTTAACTATAACGCTCTGATCATAGTCAGACCAACATTGCTACGACCCGTATTCGCACCGACAC”, the “relative integration efficiency (log2)” value was -1.37 ± 0.066.
For “ACATTTGTTGATACAACCATAAAATGATAATTACACCCATAAATTGATAATTATCACACGGTAAAATTGATATTGCCTCTGATCATAGTCAGACCAACATTGCTACGACCCGTATTCGCACCGACAC” the value was 2.35 ± 0.067; for “ACATTTGTTGATACAACCATAAAATGATAATTACAACCATAAAATGATAATTATCACACCCATAAATTGATAATTACTCTGATCATAGTCAGACCAACATTGCTACGACCCGTATTCGCACCGACAC”, -0.0822 ± 0.2; for “ACATTTGTTGATACAACCATAAAATGATAATTAATAATTATTCACCCATAAATTGATAATTATCACACCCATAAATTGATATTGCCTCTGATCATAGTCAGACCAACATTGCTACGACCCGTATTCG”, -1.92 ± 0.46.
Regarding “ACATTTGTTGATACAACCATAAAAGGATCATTACCCCCATCAATTGATAATTATCACACCCAATTTAACTATAACGCTCTGATCATAGTCAGACCAACATTGCTACGACCCGTATTCGCACCGACAC”, the “relative integration efficiency (log2)” value was -1.13 ± 0.29.
